Laboratory results: publication PMC7248865, “Ultrasensitive and Highly Selective Graphene-Based Field-Effect Transistor Biosensor for Anti-Diuretic Hormone Detection”

Target: T1, anti-diuretic hormone (ADH, arginine-vasopressin) (UniProt P01185 20-28)
T1 chain: CYFQNCPRG
Test: graphene FET (drain current); 10 ag/mL to 1 pg/mL ADH in PBS; ID 116.26 to 338.64 uA at VG 8 V; sensor LOD 3.55 ag/mL; PBS (or human serum), 10 min incubation per concentration, PBS washes; pH and temperature not stated

B1: ADH-specific aptamer (ssDNA)
DNA: TCACGTGCATGATAGACGGCGAAGCCGTCGAGTTGCTGTGTGCCGATGCACGTGA
modifications: 5'-amine
**Q.** Does B1 bind?
**A.** Result: binds
